Like-named read-outs stand apart in the source and are kept apart here.

Binding result, IC50 and Kd data for eight molecules are collected here from US8211429 (dated 2012).

Assay [1] has as its target T1, human NRP2 (human, UniProt O60462).
T1 chain: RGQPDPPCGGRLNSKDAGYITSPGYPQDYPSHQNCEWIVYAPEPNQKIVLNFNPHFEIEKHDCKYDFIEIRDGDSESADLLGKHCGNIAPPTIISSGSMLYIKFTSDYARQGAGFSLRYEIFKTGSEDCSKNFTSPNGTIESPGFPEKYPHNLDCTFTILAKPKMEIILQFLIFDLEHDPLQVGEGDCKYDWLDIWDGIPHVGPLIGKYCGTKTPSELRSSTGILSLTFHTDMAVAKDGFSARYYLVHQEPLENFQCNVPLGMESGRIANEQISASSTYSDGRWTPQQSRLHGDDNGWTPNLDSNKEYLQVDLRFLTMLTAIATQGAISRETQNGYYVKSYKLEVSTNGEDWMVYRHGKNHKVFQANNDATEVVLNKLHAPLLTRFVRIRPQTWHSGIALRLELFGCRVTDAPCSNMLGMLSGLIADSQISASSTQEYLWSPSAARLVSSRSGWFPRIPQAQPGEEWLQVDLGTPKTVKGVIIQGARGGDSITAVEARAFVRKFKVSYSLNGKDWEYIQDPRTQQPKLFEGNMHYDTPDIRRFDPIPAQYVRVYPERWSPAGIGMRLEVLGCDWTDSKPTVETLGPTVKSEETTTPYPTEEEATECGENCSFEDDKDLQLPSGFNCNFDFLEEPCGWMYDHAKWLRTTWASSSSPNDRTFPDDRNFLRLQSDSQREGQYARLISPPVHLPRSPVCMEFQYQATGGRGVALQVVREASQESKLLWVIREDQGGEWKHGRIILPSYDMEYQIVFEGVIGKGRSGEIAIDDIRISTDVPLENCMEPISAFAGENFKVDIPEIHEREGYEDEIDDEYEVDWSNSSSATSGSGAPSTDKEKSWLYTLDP
The experiment in a line: SPR up to 500 nM.

For assay [2], the target named is BSA (bovine, UniProt P02769). Kind of assay: SPR up to 500 nM.
Sequence of BSA (P02769 25-607): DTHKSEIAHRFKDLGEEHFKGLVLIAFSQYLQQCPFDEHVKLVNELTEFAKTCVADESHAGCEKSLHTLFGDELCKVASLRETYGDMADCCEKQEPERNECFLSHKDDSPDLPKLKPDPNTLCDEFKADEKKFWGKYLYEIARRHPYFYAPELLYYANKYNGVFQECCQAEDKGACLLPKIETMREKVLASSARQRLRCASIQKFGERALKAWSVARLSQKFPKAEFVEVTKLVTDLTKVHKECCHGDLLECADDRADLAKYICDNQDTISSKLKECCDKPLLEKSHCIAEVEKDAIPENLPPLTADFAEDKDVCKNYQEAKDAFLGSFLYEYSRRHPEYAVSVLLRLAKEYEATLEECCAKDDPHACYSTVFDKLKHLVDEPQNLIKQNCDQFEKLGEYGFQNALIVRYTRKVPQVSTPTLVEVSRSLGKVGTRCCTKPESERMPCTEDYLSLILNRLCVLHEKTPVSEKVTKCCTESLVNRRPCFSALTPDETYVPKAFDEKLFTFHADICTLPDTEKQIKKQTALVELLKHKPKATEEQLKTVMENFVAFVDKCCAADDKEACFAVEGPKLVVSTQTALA
For assay [3], the target named is T2, murine NRP2 (mouse, UniProt O35375).
T2 chain: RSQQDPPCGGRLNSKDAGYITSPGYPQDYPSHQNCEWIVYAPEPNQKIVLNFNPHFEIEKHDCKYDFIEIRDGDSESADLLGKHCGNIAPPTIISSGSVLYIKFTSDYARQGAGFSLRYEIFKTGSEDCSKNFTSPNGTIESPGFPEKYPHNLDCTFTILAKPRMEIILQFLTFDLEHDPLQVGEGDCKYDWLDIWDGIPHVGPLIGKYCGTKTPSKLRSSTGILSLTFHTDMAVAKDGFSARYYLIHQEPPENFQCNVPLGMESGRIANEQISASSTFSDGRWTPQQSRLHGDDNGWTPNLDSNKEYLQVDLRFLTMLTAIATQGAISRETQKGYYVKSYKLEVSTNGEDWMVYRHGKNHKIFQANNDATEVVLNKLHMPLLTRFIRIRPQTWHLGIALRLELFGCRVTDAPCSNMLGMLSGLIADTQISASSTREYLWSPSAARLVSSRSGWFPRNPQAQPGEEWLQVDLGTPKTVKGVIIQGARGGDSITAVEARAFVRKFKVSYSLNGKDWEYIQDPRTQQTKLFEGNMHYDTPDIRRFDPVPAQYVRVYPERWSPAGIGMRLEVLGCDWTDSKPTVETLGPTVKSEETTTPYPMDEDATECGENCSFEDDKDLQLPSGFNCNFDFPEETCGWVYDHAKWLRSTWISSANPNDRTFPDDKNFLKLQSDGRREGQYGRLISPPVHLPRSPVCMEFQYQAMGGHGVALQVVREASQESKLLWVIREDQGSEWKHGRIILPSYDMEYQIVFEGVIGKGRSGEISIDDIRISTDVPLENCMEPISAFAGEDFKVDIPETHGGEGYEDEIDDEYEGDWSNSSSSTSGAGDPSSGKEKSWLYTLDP
Kind of assay: SPR up to 500 nM.

Assay [4] has as its target T3, ErbB2-ECD (human, UniProt P04626). Kind of assay: SPR up to 500 nM.
The target of assay [5] is T4, human NRP1 (human, UniProt O14786). The experiment in a line: competition phage ELISA.
For assay [6], the target named is T5, murine NRP1 (mouse, UniProt P97333).
T5 chain: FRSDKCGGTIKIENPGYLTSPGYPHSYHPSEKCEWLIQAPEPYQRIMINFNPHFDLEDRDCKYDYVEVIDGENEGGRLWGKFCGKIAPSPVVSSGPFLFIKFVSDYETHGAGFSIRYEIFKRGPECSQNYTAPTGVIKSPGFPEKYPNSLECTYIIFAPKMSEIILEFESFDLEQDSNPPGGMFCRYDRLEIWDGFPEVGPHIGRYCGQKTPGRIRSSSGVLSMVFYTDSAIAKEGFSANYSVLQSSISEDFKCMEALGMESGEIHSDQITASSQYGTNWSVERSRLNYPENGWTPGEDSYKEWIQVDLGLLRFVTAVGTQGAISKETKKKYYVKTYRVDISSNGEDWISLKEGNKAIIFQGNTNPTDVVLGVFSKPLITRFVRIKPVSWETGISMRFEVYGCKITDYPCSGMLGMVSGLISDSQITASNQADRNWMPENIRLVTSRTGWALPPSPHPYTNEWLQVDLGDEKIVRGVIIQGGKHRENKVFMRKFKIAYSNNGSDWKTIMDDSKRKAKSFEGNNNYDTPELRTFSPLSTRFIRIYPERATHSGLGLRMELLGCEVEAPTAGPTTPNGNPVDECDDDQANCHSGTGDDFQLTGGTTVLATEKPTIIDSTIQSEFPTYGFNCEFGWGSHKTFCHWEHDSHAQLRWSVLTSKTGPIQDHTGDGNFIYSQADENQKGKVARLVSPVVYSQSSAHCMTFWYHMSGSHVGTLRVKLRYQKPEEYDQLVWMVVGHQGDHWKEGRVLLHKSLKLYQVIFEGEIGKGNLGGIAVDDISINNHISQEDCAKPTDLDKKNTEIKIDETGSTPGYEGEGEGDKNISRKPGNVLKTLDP
Kind of assay: competition phage ELISA.

Assay [7] concerns the target T4, human NRP1. The experiment in a line: SPR 25C.
In assay [8] the target is T5, murine NRP1. The experiment in a line: SPR 25C.
In assay [9] the target is T4, human NRP1. Kind of assay: competition phage ELISA. This is another data set of the same source.
The target in assay [10] is T5, murine NRP1. Kind of assay: competition phage ELISA.
The target of assay [11] is T3, ErbB2-ECD. The experiment in a line: SPR.
Assay [12] addresses T2, murine NRP2. Kind of assay: SPR.
The target in assay [13] is T1, human NRP2. The experiment in a line: SPR.

B1: YW64.3 (antibody, V domains shown)
VH: EVQLVESGGGLVQPGGSLRLSCAASGFSFSSEPISWVRQAPGKGLEWVSSITGKNGYTYYADSVKGRFTISADTSKNTAYLQMNSLRAEDTAVYYCARWGKKVYGMDVWGQGTLVTVSS
VL: DIQMTQSPSSLSASVGDRVTITCRASQSISSYLAWYQQKPGKAPKLLIYGASSRASGVPSRFSGSGSGTDFTLTISSLQPEDFATYYCQQYMSVPITFGQGTKVEIKR
As to B1, the binding result in [1], in assay [2], in [3] and in assay [4] was “no binding” throughout.

B2: YW107.4.38 (antibody, V domains shown)
VH: EVQLVESGGGLVQPGGSLRLSCAASGFTFSSYAMSWVRQAPGKGLEWVSQISPAGGYTNYADSVKGRFTISADTSKNTAYLQMNSLRAEDTAVYYCARELPYYRMSKVMDVWGQGTLVTVSS
VL: DIQMTQSPSSLSASVGDRVTITCRASQYLSSYLAWYQQKPGKAPKLLIYGASSRASGVPSRFSGSGSGTDFTLTISSLQPEDFATYYCQQYLRSPITFGQGTKVEIKR
On to B2, for which the IC50 in [5] came to 0.28 nM; in assay [6] it was 1.4 nM. Further, the figures for the Kd in assay [7] and in assay [8] were 1.8 nM and 3.2 nM, respectively.

B3: YW107.4 (antibody, V domains shown)
VH: EVQLVESGGGLVQPGGSLRLSCAASGFTFSSYAMSWVRQAPGKGLEWVSQISPAGGYTNYADSVKGRFTISADTSKNTAYLQMNSLRAEDTAVYYCARELPYYRMSKVMDVWGQGTLVTVSS
VL: DIQMTQSPSSLSASVGDRVTITCRASQSISSYLAWYQQKPGKAPKLLIYGASSRASGVPSRFSGSGSGTDFTLTISSLQPEDFATYYCQQYYSSPLTFGQGTKVEIKR
As to B3, the 50% inhibitory concentration (IC50) in assay [9] was 6.1 nM; in [5], 6.1 nM; in assay [6] it was 38 nM; in [10], 38 nM. For the same molecule, the binding result in assay [1], in assay [2], in assay [3] and in assay [11] was “no binding” throughout. Also, the Kd in assay [7] came to 5 nM; in [8], 11 nM.

B4: YW107.4.52 (antibody, V domains shown)
VH: EVQLVESGGGLVQPGGSLRLSCAASGFTFSSYAMSWVRQAPGKGLEWVSQISPAGGYTNYADSVKGRFTISADTSKNTAYLQMNSLRAEDTAVYYCARELPYYRMSKVMDVWGQGTLVTVSS
VL: DIQMTQSPSSLSASVGDRVTITCRASQYFSSYLAWYQQKPGKAPKLLIYGASTLASGVPSRFSGSGSGTDFTLTISSLQPEDFATYYCQQYIRSPLTFGQGTKVEIKR
Consider B4, for which the IC50 was 0.22 nM in assay [5] and 1.1 nM in [6]. The Kd in [7] worked out at 0.9 nM; in assay [8] it was 1.2 nM.

B5: YW107.4.63 (antibody, V domains shown)
VH: EVQLVESGGGLVQPGGSLRLSCAASGFTFSSYAMSWVRQAPGKGLEWVSQISPAGGYTNYADSVKGRFTISADTSKNTAYLQMNSLRAEDTAVYYCARELPYYRMSKVMDVWGQGTLVTVSS
VL: DIQMTQSPSSLSASVGDRVTITCRASQYLSSYLAWYQQKPGKAPKLLIYGASSSESGVPSRFSGSGSGTDFTLTISSLQPEDFATYYCQQYISVPLTFGQGTKVEIKR
As for B5, the 50% inhibitory concentration (IC50) in assay [5] stood at 0.15 nM; in [6], 0.8 nM. Further, the Kd in [7] and in assay [8] was 0.8 nM in each case.

B6: YW107.4.87 (antibody, V domains shown)
VH: EVQLVESGGGLVQPGGSLRLSCAASGFTFSSYAMSWVRQAPGKGLEWVSQISPAGGYTNYADSVKGRFTISADTSKNTAYLQMNSLRAEDTAVYYCARELPYYRMSKVMDVWGQGTLVTVSS
VL: DIQMTQSPSSLSASVGDRVTITCRASQYFSSYLAWYQQKPGKAPKLLIYGASSRASGVPSRFSGSGSGTDFTLTISSLQPEDFATYYCQQYLGSPPTFGQGTKVEIKR
With B6, the binding result in assay [12] and in assay [13] was “no binding” each time.

B7: YW107.4.18 (antibody, V domains shown)
VH: EVQLVESGGGLVQPGGSLRLSCAASGFTFSSYAMSWVRQAPGKGLEWVSQISPAGGYTNYADSVKGRFTISADTSKNTAYLQMNSLRAEDTAVYYCARELPYYRMSKVMDVWGQGTLVTVSS
VL: DIQMTQSPSSLSASVGDRVTITCRASQYFSSYLAWYQQKPGKAPKLLIYGASTHESGVPSRFSGSGSGTDFTLTISSLQPEDFATYYCQQYIRSPLTFGQGTKVEIKR
In turn, B7 came in with an IC50 in assay [6] of 1.1 nM. Further, the Kd in [7] was 1 nM; in assay [8] it was 2.1 nM.

B8: YW107.4.76a (antibody, V domains shown)
VH: EVQLVESGGGLVQPGGSLRLSCAASGFTFSSYAMSWVRQAPGKGLEWVSQISPAGGYTNYADSVKGRFTISADTSKNTAYLQMNSLRAEDTAVYYCARELPYYRMSKVMDVWGQGTLVTVSS
VL: DIQMTQSPSSLSASVGDRVTITCRASQYISSYLAWYQQKPGKAPKLLIYGASRRASGVPSRFSGSGSGTDFTLTISSLQPEDFATYYCQQYLRSPHTFGQGTKVEIKR
For B8, the half-inhibitory concentration (IC50) in [5] is 0.23 nM; in assay [6], 0.8 nM. For the same molecule, the Kd in assay [7] came to 1.4 nM; in assay [8], 31 nM.
